B1: anti-tau antibody MC1 expressed from viral genome construct MC1HIRESL (TAU_ITR75; SEQ ID NO: 2064) (antibody, mouse IgG1, kappa, V domains shown)
VH: QVQLQQSGAELMKPGASVKISCKATGYTFSNYWIEWVKQRPGHGLEWIGEILPGSDSIKYNENFKGKATFTADTSSNTAYMQLSSLTSEDSAVYYCARRGNYPDYWGQGTTLTVSS
VL: DVVMTQTPLSLPVSLGDQASISCRSSQSLVHSNGNTYLHWYLQKPGQSPKLLIYKVSNRFSGVPDRFSGSGSGTDFTLKISRVEAEDLGVYFCSQSTHVPLTFGAGTKLELKR
B2: anti-tau antibody MC1 expressed from viral genome construct MC1LIRESH (TAU_ITR80; SEQ ID NO: 2069) (antibody, mouse IgG1, kappa, V domains shown)
VH: QVQLQQSGAELMKPGASVKISCKATGYTFSNYWIEWVKQRPGHGLEWIGEILPGSDSIKYNENFKGKATFTADTSSNTAYMQLSSLTSEDSAVYYCARRGNYPDYWGQGTTLTVSS
VL: DVVMTQTPLSLPVSLGDQASISCRSSQSLVHSNGNTYLHWYLQKPGQSPKLLIYKVSNRFSGVPDRFSGSGSGTDFTLKISRVEAEDLGVYFCSQSTHVPLTFGAGTKLELKR
B3: anti-tau antibody MC1 expressed from viral genome construct MC1LF2AH (TAU_ITR79; SEQ ID NO: 2068) (antibody, V domains shown)
VH: QVQLQQSGAELMKPGASVKISCKATGYTFSNYWIEWVKQRPGHGLEWIGEILPGSDSIKYNENFKGKATFTADTSSNTAYMQLSSLTSEDSAVYYCARRGNYPDYWGQGTTLTVSS
VL: DVVMTQTPLSLPVSLGDQASISCRSSQSLVHSNGNTYLHWYLQKPGQSPKLLIYKVSNRFSGVPDRFSGSGSGTDFTLKISRVEAEDLGVYFCSQSTHVPLTFGAGTKLELKR
B4: anti-tau antibody MC1 expressed from viral genome construct MC1HF.F2AL (TAU_ITR72; SEQ ID NO: 2061) (antibody, V domains shown)
VH: QVQLQQSGAELMKPGASVKISCKATGYTFSNYWIEWVKQRPGHGLEWIGEILPGSDSIKYNENFKGKATFTADTSSNTAYMQLSSLTSEDSAVYYCARRGNYPDYWGQGTTLTVSS
VL: DVVMTQTPLSLPVSLGDQASISCRSSQSLVHSNGNTYLHWYLQKPGQSPKLLIYKVSNRFSGVPDRFSGSGSGTDFTLKISRVEAEDLGVYFCSQSTHVPLTFGAGTKLELKR
B5: anti-tau antibody MC1 expressed from viral genome construct MC1LF.F2AH (TAU_ITR78; SEQ ID NO: 2067) (antibody, V domains shown)
VH: QVQLQQSGAELMKPGASVKISCKATGYTFSNYWIEWVKQRPGHGLEWIGEILPGSDSIKYNENFKGKATFTADTSSNTAYMQLSSLTSEDSAVYYCARRGNYPDYWGQGTTLTVSS
VL: DVVMTQTPLSLPVSLGDQASISCRSSQSLVHSNGNTYLHWYLQKPGQSPKLLIYKVSNRFSGVPDRFSGSGSGTDFTLKISRVEAEDLGVYFCSQSTHVPLTFGAGTKLELKR
B6: anti-tau antibody MC1 expressed from viral genome construct MC1LP2AH (TAU_ITR82; SEQ ID NO: 2071) (antibody, V domains shown)
VH: QVQLQQSGAELMKPGASVKISCKATGYTFSNYWIEWVKQRPGHGLEWIGEILPGSDSIKYNENFKGKATFTADTSSNTAYMQLSSLTSEDSAVYYCARRGNYPDYWGQGTTLTVSS
VL: DVVMTQTPLSLPVSLGDQASISCRSSQSLVHSNGNTYLHWYLQKPGQSPKLLIYKVSNRFSGVPDRFSGSGSGTDFTLKISRVEAEDLGVYFCSQSTHVPLTFGAGTKLELKR
B7: anti-tau antibody MC1 expressed from viral genome construct MC1HF.P2AL (TAU_ITR73; SEQ ID NO: 2062) (antibody, V domains shown)
VH: QVQLQQSGAELMKPGASVKISCKATGYTFSNYWIEWVKQRPGHGLEWIGEILPGSDSIKYNENFKGKATFTADTSSNTAYMQLSSLTSEDSAVYYCARRGNYPDYWGQGTTLTVSS
VL: DVVMTQTPLSLPVSLGDQASISCRSSQSLVHSNGNTYLHWYLQKPGQSPKLLIYKVSNRFSGVPDRFSGSGSGTDFTLKISRVEAEDLGVYFCSQSTHVPLTFGAGTKLELKR
B8: anti-tau antibody MC1 expressed from viral genome construct MC1LF.P2AH (TAU_ITR83; SEQ ID NO: 2072) (antibody, V domains shown)
VH: QVQLQQSGAELMKPGASVKISCKATGYTFSNYWIEWVKQRPGHGLEWIGEILPGSDSIKYNENFKGKATFTADTSSNTAYMQLSSLTSEDSAVYYCARRGNYPDYWGQGTTLTVSS
VL: DVVMTQTPLSLPVSLGDQASISCRSSQSLVHSNGNTYLHWYLQKPGQSPKLLIYKVSNRFSGVPDRFSGSGSGTDFTLKISRVEAEDLGVYFCSQSTHVPLTFGAGTKLELKR
B9: IPN002 antibody expressed from CAG-IPN002-HF.T2AL (TAU_ITR1) (antibody, V domains shown)
VH: EVHLVESGGALVKPGGSLKLSCAASGFSFSKYGMSWVRQTPDKRLEWVATISSSGSRTYYPDSVKGQFTISRDNAKNTLYLQMSSLKSEDTAMYYCSISWDGAMDYWGQGTSVTVSS
VL: DVLMTQTPLSLPVSLGDQASISCKSSQSIVHSNGNTYLEWYLQKPGQSPKLLVYKVSNRFSGVPDRFSGSGSGTDFTLKISRVEAEDLGTYYCFQGSLVPWAFGGGTKLEIK
B10: IPN002 antibody expressed from CAG-IPN002-HF.F2AL (TAU_ITR2) (antibody, V domains shown)
VH: EVHLVESGGALVKPGGSLKLSCAASGFSFSKYGMSWVRQTPDKRLEWVATISSSGSRTYYPDSVKGQFTISRDNAKNTLYLQMSSLKSEDTAMYYCSISWDGAMDYWGQGTSVTVSS
VL: DVLMTQTPLSLPVSLGDQASISCKSSQSIVHSNGNTYLEWYLQKPGQSPKLLVYKVSNRFSGVPDRFSGSGSGTDFTLKISRVEAEDLGTYYCFQGSLVPWAFGGGTKLEIK
B11: IPN002 antibody expressed from CB6-IPN002-HF.F2AL (TAU_ITR3) (antibody, V domains shown)
VH: EVHLVESGGALVKPGGSLKLSCAASGFSFSKYGMSWVRQTPDKRLEWVATISSSGSRTYYPDSVKGQFTISRDNAKNTLYLQMSSLKSEDTAMYYCSISWDGAMDYWGQGTSVTVSS
VL: DVLMTQTPLSLPVSLGDQASISCKSSQSIVHSNGNTYLEWYLQKPGQSPKLLVYKVSNRFSGVPDRFSGSGSGTDFTLKISRVEAEDLGTYYCFQGSLVPWAFGGGTKLEIK
B12: IPN002 antibody expressed from CB6-IPN002-HF.T2AL (TAU_ITR4) (antibody, V domains shown)
VH: EVHLVESGGALVKPGGSLKLSCAASGFSFSKYGMSWVRQTPDKRLEWVATISSSGSRTYYPDSVKGQFTISRDNAKNTLYLQMSSLKSEDTAMYYCSISWDGAMDYWGQGTSVTVSS
VL: DVLMTQTPLSLPVSLGDQASISCKSSQSIVHSNGNTYLEWYLQKPGQSPKLLVYKVSNRFSGVPDRFSGSGSGTDFTLKISRVEAEDLGTYYCFQGSLVPWAFGGGTKLEIK
B13: IPN002 antibody expressed from CAG-IPN002-LF2AH (TAU_ITR9) (antibody, V domains shown)
VH: EVHLVESGGALVKPGGSLKLSCAASGFSFSKYGMSWVRQTPDKRLEWVATISSSGSRTYYPDSVKGQFTISRDNAKNTLYLQMSSLKSEDTAMYYCSISWDGAMDYWGQGTSVTVSS
VL: DVLMTQTPLSLPVSLGDQASISCKSSQSIVHSNGNTYLEWYLQKPGQSPKLLVYKVSNRFSGVPDRFSGSGSGTDFTLKISRVEAEDLGTYYCFQGSLVPWAFGGGTKLEIK
B14: IPN002 antibody expressed from CAG-IPN002-LT2AH (TAU_ITR10) (antibody, V domains shown)
VH: EVHLVESGGALVKPGGSLKLSCAASGFSFSKYGMSWVRQTPDKRLEWVATISSSGSRTYYPDSVKGQFTISRDNAKNTLYLQMSSLKSEDTAMYYCSISWDGAMDYWGQGTSVTVSS
VL: DVLMTQTPLSLPVSLGDQASISCKSSQSIVHSNGNTYLEWYLQKPGQSPKLLVYKVSNRFSGVPDRFSGSGSGTDFTLKISRVEAEDLGTYYCFQGSLVPWAFGGGTKLEIK
notes: Full antibody
B15: IPN002 antibody expressed from CB6-IPN002-LF2AH (TAU_ITR11) (antibody, V domains shown)
VH: EVHLVESGGALVKPGGSLKLSCAASGFSFSKYGMSWVRQTPDKRLEWVATISSSGSRTYYPDSVKGQFTISRDNAKNTLYLQMSSLKSEDTAMYYCSISWDGAMDYWGQGTSVTVSS
VL: DVLMTQTPLSLPVSLGDQASISCKSSQSIVHSNGNTYLEWYLQKPGQSPKLLVYKVSNRFSGVPDRFSGSGSGTDFTLKISRVEAEDLGTYYCFQGSLVPWAFGGGTKLEIK

Assays:
[1] = molecular target: T1, extracellular tau in the form of paired helical filaments (ePHF tau) (UniProt P10636-8 1-441, limits assumed); experiment: ePHF tau ELISA, ePHF coated; antibody at 0.7 ng/ml; anti-mouse-HRP
T1 construct: Aggregated, hyperphosphorylated tau preparation; not a single defined polypeptide
T1 sequence (P10636 other isoform, or with tags, fused parts or gaps limits assumed): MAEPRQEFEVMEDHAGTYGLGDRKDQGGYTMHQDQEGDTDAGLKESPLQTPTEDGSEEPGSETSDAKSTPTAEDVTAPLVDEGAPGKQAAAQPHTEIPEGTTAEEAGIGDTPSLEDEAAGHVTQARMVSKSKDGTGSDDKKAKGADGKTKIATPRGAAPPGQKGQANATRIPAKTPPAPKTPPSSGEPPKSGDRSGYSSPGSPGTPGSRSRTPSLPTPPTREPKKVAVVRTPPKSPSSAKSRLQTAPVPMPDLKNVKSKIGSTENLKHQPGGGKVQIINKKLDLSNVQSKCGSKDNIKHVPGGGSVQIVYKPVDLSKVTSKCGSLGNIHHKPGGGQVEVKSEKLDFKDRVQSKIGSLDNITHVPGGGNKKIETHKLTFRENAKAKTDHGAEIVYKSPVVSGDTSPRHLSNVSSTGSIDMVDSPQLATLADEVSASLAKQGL

[2] = molecular target: T1, extracellular tau in the form of paired …; experiment: ePHF tau ELISA, ePHF coated; antibody at 2.1 ng/ml; anti-mouse-HRP
[3] = molecular target: T1, extracellular tau in the form of paired …; experiment: ePHF tau ELISA, ePHF coated; antibody at 6.2 ng/ml; anti-mouse-HRP
[4] = molecular target: T1, extracellular tau in the form of paired …; experiment: ePHF tau ELISA, ePHF coated; antibody at 18.5 ng/ml; anti-mouse-HRP
[5] = molecular target: T1, extracellular tau in the form of paired …; experiment: ePHF tau ELISA, ePHF coated; antibody at 55.6 ng/ml; anti-mouse-HRP
[6] = molecular target: T1, extracellular tau in the form of paired …; experiment: ePHF tau ELISA, ePHF coated; antibody at 166.7 ng/ml; anti-mouse-HRP
[7] = molecular target: T1, extracellular tau in the form of paired …; experiment: ePHF tau ELISA, ePHF coated; antibody at 500.0 ng/ml; anti-mouse-HRP
[8] = molecular target: T1, extracellular tau in the form of paired …; experiment: ePHF tau ELISA, ePHF coated; antibody at 1000.0 ng/ml; anti-mouse-HRP
[9] = molecular target: T2, wild-type tau (441 amino acids; tau441; NP_005901.2) (human, UniProt P10636 1-758); experiment: wild-type tau ELISA, ExpiCHO supernatant
T2 construct: Unphosphorylated recombinant tau441 used in the wild-type tau ELISA; also called wt tau441; wtTau
T2 sequence (P10636 other isoform, or with tags, fused parts or gaps limits assumed): as above

| Binder | OD450 [1] [OD450] | OD450 [2] [OD450] | OD450 [3] [OD450] | OD450 [4] [OD450] | OD450 [5] [OD450] | OD450 [6] [OD450] | OD450 [7] [OD450] | OD450 [8] [OD450] | binding result [9] |
| --- | --- | --- | --- | --- | --- | --- | --- | --- | --- |
| B1 | 0.1 | 0.1 | 0.1 | 0.1 | 0.2 | 0.3 | 0.7 | 1 |  |
| B2 | 0.1 | 0.1 | 0.1 | 0.2 | 0.3 | 0.6 | 0.9 | 1 |  |
| B3 | 0.1 | 0.1 | 0.1 | 0.2 | 0.4 | 0.7 | 1 | 1.1 |  |
| B4 | 0.1 | 0.1 | 0.2 | 0.3 | 0.5 | 0.7 | 1 | 1.1 |  |
| B5 | 0.1 | 0.1 | 0.1 | 0.2 | 0.4 | 0.7 | 1 | 1.1 |  |
| B6 | 0.1 | 0.1 | 0.1 | 0.1 | 0.2 | 0.4 | 0.7 | 0.8 |  |
| B7 | 0.1 | 0.1 | 0.1 | 0.2 | 0.4 | 0.6 | 0.9 | 0.9 |  |
| B8 | 0.1 | 0.1 | 0.1 | 0.1 | 0.1 | 0.2 | 0.4 | 0.6 |  |
| B9 |  |  |  |  |  |  |  |  | binds |
| B10 |  |  |  |  |  |  |  |  | binds |
| B11 |  |  |  |  |  |  |  |  | binds |
| B12 |  |  |  |  |  |  |  |  | binds |
| B13 |  |  |  |  |  |  |  |  | binds |
| B14 |  |  |  |  |  |  |  |  | binds |
| B15 |  |  |  |  |  |  |  |  | binds |

Source: patent US20220339270A1 (published 2022)
